Experimental findings from patent publication US20220380763A1, “NUCLEIC ACID DELIVERY ENHANCER” (NATIONAL UNIVERSITY CORPORATION KOCHI UNIVERSITY, priority 2019, published 2022) are described below.

The test system of data set [1] is RNA duplex (siRNA, SEQ ID NO: 1 and 2). The note with it: for Tm: 4 μM nucleic acid duplex, 100 mM NaCl, pH 7.0; for ΔTm: versus no peptide (72.3). As for the experimental part: The melting temperature of the nucleic acid duplex was measured in the presence and absence of the cationic oligopeptide or folic acid-cationic oligopeptide complex synthesized in Example 1.
In this Example, the cationic oligopeptide (Dab8) or the folic acid-cationic oligopeptide (Fol-Dab8A or Fol-Dab8B) was added to an annealed RNA duplex, and the melting temperature (Tm value) was measured. As the RNA duplex, an oligonucleotide pair consisting of the following sequences was used as an siRNA.
After 144 μL of 50 μM nucleic acid solution was prepared and kept at 95° C. for 5 minutes, it was slowly cooled to 4° C. at −0.5° C./min. The solution was added to a mixed solution of pH 7.0 buffer containing 200 mM NaCl and 20 mM Na2HPO4—NaH2PO4 in OTSUKA DISTILLED WATER, and 0.1 mM peptide aqueous solution, and samples were adjusted to a final concentration of 10 mM Na2HPO4—NaH2PO4, 100 mM NaCl, 4 μM nucleic acid duplex, and 0, 4, 8, 12, 16, and 20 μM peptide (0, 1, 2, 3, 4, and 5 equivalents, respectively).
The temperature was increased from 20° C. to 95° C. at 0.5° C./min, and the absorbance at 260 nm was measured to determine a melting curve. The absorbance at 320 nm was measured to remove background noise, and a melting curve was created by subtracting the absorbance at 320 nm from the absorbance at 260 nm, and the Tm value was determined by a median method.

In data set [2] the test system is S2-013 pancreatic cancer cells. Conditions: for incorporation efficiency of siRNA: among 1 to 3 equivalents; for incorporation efficiency of siRNA compared with Dab8: best equivalent versus Dab8 of 1 to 3 equivalents. As for the experimental part:
Since it is difficult to distinguish between intracellularly incorporated labels and non-incorporated labels by flow cytometry, the uptake of siRNA into pancreatic cancer cells was observed using a confocal microscope.
The pancreatic cancer cell line 52-013 (Cell Resource Center for Biomedical Research, Institute of Development, Aging and Cancer, Tohoku University, ID: TKG 0709) was seeded in a 4-well chamber slide (Thermo Fisher Scientific Inc.) at a cell density of 2×10^4 cells/well, and scrambled control siRNA (SEQ ID NOs: 3 and 4) labeled with Alexa647 (Thermo Fisher Scientific Inc.), and Dab8, Fol-Dab8A, or Fol-Dab8B in 1 to 3 equivalents to the siRNA were added and then cultured for 48 hours. The concentration of siRNA used was 8.28 μg/mL in 25 μL, and Dab8, Fol-Dab8A, and Fol-Dab8B were diluted 25-fold from the stock solution (Dab8: 119.3 μg/mL, Fol-Dab8A and Fol-Dab8B: 141.2 μg/mL) and used. The amounts corresponding to 1, 2, and 3 equivalents relative to siRNA are 3.9 μL, 7.8 μL, and 11.7 μL, respectively.
The next day, the cells were fixed with 4% paraformaldehyde, sealed with a DAPI-containing encapsulant, and then observed with an all-in-one fluorescence microscope (BZ-X800, Keyence Corporation).
To quantify the uptake, the hybrid cell count function of the Keyence analysis software BZ-X800 Analyzer was used to count cells into which siRNA was taken up in the presence of Dab8, Fol-Dab8A, and Fol-Dab8B. Determination was made by measuring cells with dark staining of at least ⅓ of the cell nuclei and cells with dark clumps in the periphery of the cell nuclei.

Data set [3] concerns S2-013 cells. Put plainly: Matrigel invasion assay. The class given is cell-based, human. The note with it: versus scrambled control siRNA and siRNA alone. The protocol:
Each of the scrambled control siRNA, SNORA18 siRNA, NUP85 siRNA, WASF2 siRNA, and SNORA22 siRNA (all used in Example 5) with the folic acid-cationic oligopeptide complex added was added to the culture solution of S2-013 cells, and Matrigel invasion assay was performed after 48 hours.
4.0×10^4 cells were suspended in a serum-free medium and seeded in the upper chamber of a Matrigel Invasion Chamber (24-well plate, pore size: 8 μm, manufactured by Becton, Dickinson, and Company). A solvent containing 5% fetal bovine serum was added to the lower chamber. After the cells were incubated in the upper chamber for 20 hours, three independent areas were observed under a microscope, and the cells invading the lower chamber were counted. The same experiment was repeated three times, and the cell invasion ability of 52-013 cells into which each siRNA was taken up was compared.
The “*” denotes a significant difference at P<0.05 as compared to the control in the t-test.
Each of the scrambled control siRNA (SEQ ID NOs: 3 and 4), SNORA18 siRNA (SEQ ID NOs: 21 and 22), NUP85 siRNA (SEQ ID NOs: 23 and 24), WASF2 siRNA (SEQ ID NOs: 25 and 26), and SNORA22 siRNA (SEQ ID NOs: 27 and 28) was added with 2 equivalents of Dab8, Fol-Dab8A, or Fol-Dab8B to the culture solution of pancreatic cancer cell line S2-013 in culture. As a control, each of the control siRNA, SNORA18 siRNA, NUP85 siRNA, WASF2 siRNA, and SNORA22 siRNA was added alone to the culture solution of the S2-013 cells.
After 48 hours of culture, the Matrigel invasion assay was performed. In the Matrigel invasion assay, the number of cells that have migrated from the upper chamber to the lower chamber is shown. The “*” denotes a significant difference at P<0.05 as compared to the control in the t-test.

The test system of data set [4] is S2-013 pancreatic cancer cells or HPNE normal pancreatic duct epithelial cells. The note with it: chemically-modified Alexa488-labeled SNORA22 siRNA, 2 equivalents, overnight. The text has this: Chemically-modified SNORA22 siRNA (SEQ ID NOs: 27 and 28) prepared in Example 7 was labeled with Alexa488 (Thermo Fisher Scientific Inc.) and added with the folic acid-cationic oligopeptide complex (Fol-Dab8B, 2 equivalents) to the culture solution of S2-013 pancreatic cancer cells or HPNE normal pancreatic duct epithelial cells (ATCC) in a 4-well chamber (Thermo Fisher Scientific Inc.) (5×10^4 cells/well).

The mark [5] stands for this setting: chemically-modified NUP85 siRNA (SEQ ID NOs: 23 and 24) with 2 equivalents of peptide.
Where [6] appears, read: chemically-modified SNORA18 siRNA (SEQ ID NOs: 21 and 22) with 2 equivalents of peptide.
Where [7] appears, read: chemically-modified SNORA22 siRNA (SEQ ID NOs: 27 and 28) with 2 equivalents of peptide.
The mark [8] stands for this setting: chemically-modified WASF2 siRNA (SEQ ID NOs: 25 and 26) with 2 equivalents of peptide.

SMILES strings stand for the structures. Read-outs that look alike come from different tables or passages of the source. Numbered stars: 1 amine (or outer) side, 2 acyl side, 3 side chain; on linkers, the order of the positions; unused ones are H or OH. Square brackets hold non-standard residues; d marks the D form. Peptide text beside a SMILES is read from it. * marks the point of attachment. Pteroyl = Nc1nc2ncc(CNc3ccc(C(=O)*)cc3)nc2c(=O)[nH]1; γGlu = O=C(O)[C@H](CCC(=O)[*:2])N[*:1]; Dab = NCC[C@H](N)C(=O)O

For `NCC[C@H](NC(=O)[C@H](CCN)NC(=O)[C@H](CCN)NC(=O)[C@H](CCN)NC(=O)[C@H](CCN)NC(=O)[C@H](CCN)NC(=O)[C@H](CCN)NC(=O)[C@H](CCN)NC(=O)CNC(=O)CNC(=O)CNC(=O)CC[C@H](NC(=O)c1ccc(NCc2cnc3nc(N)[nH]c(=O)c3n2)cc1)C(=O)O)C(N)=O` [Fol-Dab8A] ({Pteroyl-γGlu}-GGG[Dab][Dab][Dab][Dab][Dab][Dab][Dab][Dab]-NH2), the Tm (as a rule, the temperature at which the thermal transition is half complete) stood at 75.2 °C in data set [1] (1 equivalent peptide); 76.8 °C in data set [1] (2 equivalents peptide); 77.7 °C in data set [1] (3 equivalents peptide); 78.7 °C in data set [1] (4 equivalents peptide); 79.1 °C in data set [1] (5 equivalents peptide). Besides, the ΔTm is 2.9 in data set [1] (1 equivalent peptide); 4.5 in data set [1] (2 equivalents peptide); 5.4 in data set [1] (3 equivalents peptide); 6.4 in data set [1] (4 equivalents peptide); 6.8 in data set [1] (5 equivalents peptide). For the same compound, the “incorporation efficiency of siRNA” value in data set [2] (3 equivalents) is recorded as “highest incorporation efficiency”. The “incorporation efficiency of siRNA compared with Dab8” value in data set [2] is “higher than Dab8”. The “invasion of S2-013 cells” value in data set [3] (setting [5]), in data set [3] (setting [6]), in data set [3] (setting [7]) and in data set [3] (setting [8]) was “significantly suppressed” throughout.
For `NCC[C@H](NC(=O)[C@H](CCN)NC(=O)[C@H](CCN)NC(=O)[C@H](CCN)NC(=O)[C@H](CCN)NC(=O)[C@H](CCN)NC(=O)[C@H](CCN)NC(=O)[C@H](CCN)NC(=O)CNC(=O)CNC(=O)CNC(=O)[C@H](CCC(=O)O)NC(=O)c1ccc(NCc2cnc3nc(N)[nH]c(=O)c3n2)cc1)C(N)=O` [Fol-Dab8B] (Pteroyl-EGGG[Dab][Dab][Dab][Dab][Dab][Dab][Dab][Dab]-NH2), the Tm in data set [1] (1 equivalent peptide) is 74.5 °C; in data set [1] (2 equivalents peptide), 76.4 °C; in data set [1] (3 equivalents peptide), 77.7 °C; in data set [1] (4 equivalents peptide) it was 78.5 °C; in data set [1] (5 equivalents peptide) it was 79.8 °C. In addition, the ΔTm in data set [1] (1 equivalent peptide) came out at 2.2; in data set [1] (2 equivalents peptide), 4.1; in data set [1] (3 equivalents peptide) it was 5.4; in data set [1] (4 equivalents peptide) it was 6.2; in data set [1] (5 equivalents peptide), 7.5. For the same compound, the “incorporation efficiency of siRNA” value in data set [2] (1 equivalent) is given as “highest incorporation efficiency”. Also, in data set [2], the “incorporation efficiency of siRNA compared with Dab8” value was “higher than Dab8”. Besides, the “uptake of SNORA22 siRNA into S2-013 pancreatic cancer cells relative to normal cells (HPNE)” value in data set [4] was about 3 fold. In addition, the “invasion of S2-013 cells” value in data set [3] (setting [5]), in data set [3] (setting [6]), in data set [3] (setting [7]) and in data set [3] (setting [8]) was “significantly suppressed” in each case.
